Measurements reported in PMC4140661.

Target: Pea2p-L409-ProA (pea2-M409L; S288C-encoded Pea2p variant in the Σ1278b background) (S. cerevisiae (S288C allele recreated in strain Σ1278b)) (UniProt P40091)
Test: co-IP; IgG pull-down with Pea2p-ProA as bait from lysates of Σ1278b cells; HA-Spa2p from a copper-inducible plasmid; lysis buffer 50 mM Tris-HCl pH 7.5, 150 mM NaCl, 2 mM EDTA, 0.5% Triton X-100; 2 hr at 4°C; Western blot (anti-HA, anti-Protein A); levels normalized against total cell lysate

HA-Spa2p, sequence (P23201 whole entry): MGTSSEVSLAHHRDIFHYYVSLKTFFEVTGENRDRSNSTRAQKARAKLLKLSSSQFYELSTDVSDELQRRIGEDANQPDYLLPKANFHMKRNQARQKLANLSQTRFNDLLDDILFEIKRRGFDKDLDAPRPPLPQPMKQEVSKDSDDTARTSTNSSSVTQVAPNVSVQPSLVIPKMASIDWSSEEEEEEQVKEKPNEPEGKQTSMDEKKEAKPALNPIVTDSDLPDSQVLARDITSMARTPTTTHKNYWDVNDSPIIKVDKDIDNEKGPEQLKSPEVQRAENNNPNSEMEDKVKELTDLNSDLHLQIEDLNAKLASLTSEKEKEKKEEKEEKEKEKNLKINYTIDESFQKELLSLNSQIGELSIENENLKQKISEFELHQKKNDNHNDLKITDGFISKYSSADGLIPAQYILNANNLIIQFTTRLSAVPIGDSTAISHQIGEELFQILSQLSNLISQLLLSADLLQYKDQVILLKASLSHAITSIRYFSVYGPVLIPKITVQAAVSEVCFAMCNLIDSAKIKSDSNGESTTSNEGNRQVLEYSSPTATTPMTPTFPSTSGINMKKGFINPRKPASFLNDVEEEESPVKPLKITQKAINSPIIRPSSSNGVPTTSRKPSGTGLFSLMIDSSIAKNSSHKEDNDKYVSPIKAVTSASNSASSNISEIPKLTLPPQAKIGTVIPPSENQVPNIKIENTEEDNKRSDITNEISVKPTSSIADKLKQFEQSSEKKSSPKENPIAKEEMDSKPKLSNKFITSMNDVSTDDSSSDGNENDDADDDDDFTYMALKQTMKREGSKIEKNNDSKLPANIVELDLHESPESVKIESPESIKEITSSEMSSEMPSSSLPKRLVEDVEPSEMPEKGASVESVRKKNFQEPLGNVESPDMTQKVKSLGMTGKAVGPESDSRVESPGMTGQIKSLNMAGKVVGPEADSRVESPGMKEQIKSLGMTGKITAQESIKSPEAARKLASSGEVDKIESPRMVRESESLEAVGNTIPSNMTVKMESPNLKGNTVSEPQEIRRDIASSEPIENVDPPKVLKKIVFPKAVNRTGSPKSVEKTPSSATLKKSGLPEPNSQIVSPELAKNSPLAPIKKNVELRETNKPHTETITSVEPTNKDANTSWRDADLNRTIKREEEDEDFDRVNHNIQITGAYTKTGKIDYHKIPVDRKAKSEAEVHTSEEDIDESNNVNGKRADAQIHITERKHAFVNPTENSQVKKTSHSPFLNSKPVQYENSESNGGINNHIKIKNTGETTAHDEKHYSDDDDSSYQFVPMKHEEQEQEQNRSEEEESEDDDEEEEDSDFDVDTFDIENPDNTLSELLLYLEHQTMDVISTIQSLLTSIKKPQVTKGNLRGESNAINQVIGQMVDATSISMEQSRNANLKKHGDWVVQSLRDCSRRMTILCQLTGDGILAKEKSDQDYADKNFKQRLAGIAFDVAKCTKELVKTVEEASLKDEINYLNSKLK
UniProt P40091, sequence (P40091 whole entry, stated change not applied): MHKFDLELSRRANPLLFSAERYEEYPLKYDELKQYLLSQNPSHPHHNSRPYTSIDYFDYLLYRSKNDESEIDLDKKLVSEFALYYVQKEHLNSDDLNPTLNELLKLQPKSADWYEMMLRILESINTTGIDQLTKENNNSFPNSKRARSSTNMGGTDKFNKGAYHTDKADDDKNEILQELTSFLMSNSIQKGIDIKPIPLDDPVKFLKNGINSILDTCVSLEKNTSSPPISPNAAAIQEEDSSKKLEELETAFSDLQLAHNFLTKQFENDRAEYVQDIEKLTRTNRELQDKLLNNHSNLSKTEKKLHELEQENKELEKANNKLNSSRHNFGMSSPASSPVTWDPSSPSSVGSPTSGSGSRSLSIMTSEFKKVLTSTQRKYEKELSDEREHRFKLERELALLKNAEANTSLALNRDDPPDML

amount of Spa2p recovered relative to Pea2p-M409: 60%
Substance: HA-Spa2p (from UniProt P23201 1-1466) (natural protein)
